Experimental findings from paper PMC6805484, “The RNA-binding ubiquitin ligase MKRN1 functions in ribosome-associated quality control of poly(A) translation” are described below.

This series concerns the target His-MKRN1 wt;His-PABPC1 (human (Homo sapiens);human (Homo …, UniProt Q9UHC7;P11940 1-482;1-636, |)). In words: pull-down; PABPC1 strongly increases MKRN1 recovery; Binding: 50 mM Tris-HCl pH 7.4, 500 mM KCl, 12.5 mM MgCl2, 1% Triton X-100, 1 h, 4 °C; wash: 200 mM NaCl, 10 mM MgCl2, 50 mM HEPES pH 7.4, 0.5% Igepal CA630, 1% Triton X-100. The following applies: protein: recombinant;recombinant; tags: N-His6;N-His6; copies: 1;1; label: 3' biotin.

Sequence of His-MKRN1 wt;His-PABPC1 (human (Homo sapiens);human (Q9UHC7 whole entry, chain 1 of 2): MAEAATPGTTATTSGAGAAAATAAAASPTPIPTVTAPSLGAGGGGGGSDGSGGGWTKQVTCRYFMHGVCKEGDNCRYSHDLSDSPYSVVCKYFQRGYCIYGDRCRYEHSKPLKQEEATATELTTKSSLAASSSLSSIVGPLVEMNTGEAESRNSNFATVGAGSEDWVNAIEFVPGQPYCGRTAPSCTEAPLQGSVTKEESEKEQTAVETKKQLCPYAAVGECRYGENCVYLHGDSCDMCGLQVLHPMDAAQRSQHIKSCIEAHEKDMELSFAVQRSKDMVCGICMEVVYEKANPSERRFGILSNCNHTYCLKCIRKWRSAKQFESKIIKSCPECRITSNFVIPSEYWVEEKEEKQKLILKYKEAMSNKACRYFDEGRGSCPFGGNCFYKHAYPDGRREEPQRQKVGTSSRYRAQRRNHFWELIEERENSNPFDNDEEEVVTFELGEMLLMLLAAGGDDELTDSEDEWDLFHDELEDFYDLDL
Sequence of His-MKRN1 wt;His-PABPC1 (human (Homo sapiens);human (P11940 whole entry, chain 2 of 2): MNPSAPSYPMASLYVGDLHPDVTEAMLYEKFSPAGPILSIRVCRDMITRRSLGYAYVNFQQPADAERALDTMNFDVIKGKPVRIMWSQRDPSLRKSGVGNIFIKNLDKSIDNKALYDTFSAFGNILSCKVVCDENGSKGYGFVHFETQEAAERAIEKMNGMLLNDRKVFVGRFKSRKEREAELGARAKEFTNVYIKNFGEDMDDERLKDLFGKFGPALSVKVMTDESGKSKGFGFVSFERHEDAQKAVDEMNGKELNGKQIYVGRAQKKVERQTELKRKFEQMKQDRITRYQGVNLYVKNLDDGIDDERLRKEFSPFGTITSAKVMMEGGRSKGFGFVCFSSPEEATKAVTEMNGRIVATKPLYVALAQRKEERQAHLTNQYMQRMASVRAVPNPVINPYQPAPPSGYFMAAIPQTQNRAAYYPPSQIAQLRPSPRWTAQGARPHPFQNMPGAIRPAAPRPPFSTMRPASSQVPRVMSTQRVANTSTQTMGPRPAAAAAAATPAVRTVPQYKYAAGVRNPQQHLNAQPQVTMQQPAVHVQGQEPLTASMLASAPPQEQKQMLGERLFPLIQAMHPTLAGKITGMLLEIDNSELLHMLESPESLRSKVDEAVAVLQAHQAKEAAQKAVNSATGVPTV

Consider GGAAAUAAACUGUAGAGUUCCAAAAAAAAAAAAAAAAAAAAA (ssRNA) [A20 RNA (SRSF4 3' UTR end + A20)], for which the binding result is “binds”.
